Measurements: patent US20040005550A1, “Methods and compositions useful for targeting activated vitronectin receptor alphavbeta3” (The Scripps Research Institute, priority 1998, published 2004)

Legend:
[1] = target: T1, αvβ3 expressed in CHO cells (Homo sapiens, UniProt P05106+P06756); test: Flow cytometry ligand binding to αvβ3-CHO cells; details: for Bmax: arbitrary fluorescence units
T1 construct: cDNAs encoding full-length human αv and β3 were subcloned into pcDNA3 and pCDM8; expressed in transfected cells
Procedure: Binding of aPB, WOW-1 Fab and FITC-fibrinogen to cells was assessed by flow cytometry. Typically, cells were cultured overnight in low serum medium (e.g., 0.5% fetal bovine serum), resuspended in incubation buffer at 1-1.5×10^7 cells/ml, and 4-6×10^5 cells were incubated with one of these ligands for 30 min at room temperature in a final volume of 50 μl. […] In some experiments, ligand binding and αvβ3 expression were measured simultaneously by incubation of cells with ligands in the presence of biotin-SSA6 (7 μg/ml), a non-function-blocking anti-β3 monoclonal antibody (Abrams, C., Deng, J., Steiner, B., and Shattil, S. J. (1994) J. Biol. Chem. 269, 18781-18788). After 30 min at room temperature, cells were washed and incubated with phycoerythrin-streptavidin (1:25 final dilution; Molecular Probes) for 20 min on ice. In the case of WOW-1 Fab, an Alexa-conjugated anti-(His)6 monoclonal antibody (Accurate Chemical and Scientific Corp., Westbury, N.Y.) was added at this stage (50 μg/ml). Cells were washed and resuspended in 0.5 ml incubation buffer containing 2 μg/ml propidium iodide (Sigma, St. Louis, Mo.). Ligand binding (FL1 channel) was analyzed immediately on the gated subset of live cells (propidium iodide-negative, FL3) that was strongly positive for αvβ3 expression (FL2). Binding isotherms were subjected to non-linear, least squares regression analysis using an equation for one-site binding (Prism 2.0 software; GraphPad Software, San Diego, Calif.). Two-tailed P values for paired samples were obtained by Student's t test.
In order to document and study the significance of affinity modulation of αvβ3, a monovalent reporter ligand was developed analogous to the activation-dependent anti-αIIbβ3 antibody, PAC1 Fab. Preliminary binding studies were conducted with the new antibody, designated WOW-1 Fab, using purified integrins in the presence of 50 μM MnCl2, which activates integrins by a direct effect on the extracellular domain (Bazzoni, G., and Hemler, M. E. (1998) Trends Biochem. Sci. 23, 30-34). […] To determine if WOW-1 Fab reacted preferentially with activated αvβ3 in cells, Fab binding was compared with that of multivalent penton base using CHO cells stably-transfected with human αvβ3 (αvβ3-CHO cells).

αvβ3-CHO cells = test: Cell adhesion assay on immobilized penton base; format: cell-based
Procedure: Immulon-2 microtiter wells (Dynex Laboratories, Chantilly, Va.) were coated with unlabeled penton base (1-100 ng/well) overnight at 4° C., followed by blocking with 20 mg/ml BSA. CHO cells stably expressing αvβ3 were labeled with BCECF-AM (Molecular Probes, Eugene, Oreg.), and cell adhesion to the immobilized penton base was quantitated by cytofluorimetry at 485/530 nm (Hato, T., Pampori, N., and Shattil, S. J. (1998) J. Cell Biol. 141(7), 1685-1695).
In order to determine whether changes in receptor affinity affect the adhesive function of αvβ3, the adhesion of αvβ3-CHO cells to immobilized penton base was quantitated. Adhesion was dependent on the coating concentration of penton base and was half-maximal at 30-40 ng/well (FIG. 7). Activation of αvβ3 by AP5 led to a 7-fold leftward shift in the dose-response curve such that half-maximal adhesion now occurred at approximately 5 ng of penton base/well. Treatment of the cells with 1 mM MnCl2 caused an even further shift in the dose-response curve, either because it induced a more profound effect on αvβ3 or it activated additional αv integrins (FIG. 7). […] Thus, affinity modulation of αvβ3 promotes both cell adhesion and post-ligand binding responses, such as cell spreading.

[2] = test system: resting or thrombin-stimulated human platelets; test: Flow cytometry ligand binding to platelets

T1 sequence (P06756 31-889 limits assumed): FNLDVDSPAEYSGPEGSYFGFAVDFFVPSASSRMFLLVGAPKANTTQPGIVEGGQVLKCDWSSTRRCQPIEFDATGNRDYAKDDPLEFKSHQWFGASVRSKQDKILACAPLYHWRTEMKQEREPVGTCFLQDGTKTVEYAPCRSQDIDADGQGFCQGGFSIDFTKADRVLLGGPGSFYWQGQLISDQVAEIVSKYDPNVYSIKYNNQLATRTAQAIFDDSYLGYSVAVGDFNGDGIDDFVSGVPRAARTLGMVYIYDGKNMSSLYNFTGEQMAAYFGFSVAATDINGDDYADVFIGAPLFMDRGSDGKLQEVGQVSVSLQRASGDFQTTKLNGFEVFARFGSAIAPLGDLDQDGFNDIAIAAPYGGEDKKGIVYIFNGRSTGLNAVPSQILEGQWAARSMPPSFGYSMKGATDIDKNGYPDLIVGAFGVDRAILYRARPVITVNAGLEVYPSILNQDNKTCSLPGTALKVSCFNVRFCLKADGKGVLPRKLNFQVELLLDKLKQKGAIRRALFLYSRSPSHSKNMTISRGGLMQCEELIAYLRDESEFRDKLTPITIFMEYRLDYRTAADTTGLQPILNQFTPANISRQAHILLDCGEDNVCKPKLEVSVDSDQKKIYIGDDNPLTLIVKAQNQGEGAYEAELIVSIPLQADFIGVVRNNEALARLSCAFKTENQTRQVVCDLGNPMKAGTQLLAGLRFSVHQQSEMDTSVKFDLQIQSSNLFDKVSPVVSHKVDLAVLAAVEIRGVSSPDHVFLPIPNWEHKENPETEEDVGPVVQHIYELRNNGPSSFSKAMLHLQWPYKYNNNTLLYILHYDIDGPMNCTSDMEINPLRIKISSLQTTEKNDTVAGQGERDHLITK
T1 sequence (P06756 891-1048 partner limits assumed): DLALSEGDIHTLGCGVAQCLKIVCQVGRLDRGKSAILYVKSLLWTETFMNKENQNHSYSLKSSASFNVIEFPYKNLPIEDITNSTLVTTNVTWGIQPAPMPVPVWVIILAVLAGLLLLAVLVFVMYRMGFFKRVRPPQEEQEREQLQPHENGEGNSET
T1 sequence (P05106 27-788): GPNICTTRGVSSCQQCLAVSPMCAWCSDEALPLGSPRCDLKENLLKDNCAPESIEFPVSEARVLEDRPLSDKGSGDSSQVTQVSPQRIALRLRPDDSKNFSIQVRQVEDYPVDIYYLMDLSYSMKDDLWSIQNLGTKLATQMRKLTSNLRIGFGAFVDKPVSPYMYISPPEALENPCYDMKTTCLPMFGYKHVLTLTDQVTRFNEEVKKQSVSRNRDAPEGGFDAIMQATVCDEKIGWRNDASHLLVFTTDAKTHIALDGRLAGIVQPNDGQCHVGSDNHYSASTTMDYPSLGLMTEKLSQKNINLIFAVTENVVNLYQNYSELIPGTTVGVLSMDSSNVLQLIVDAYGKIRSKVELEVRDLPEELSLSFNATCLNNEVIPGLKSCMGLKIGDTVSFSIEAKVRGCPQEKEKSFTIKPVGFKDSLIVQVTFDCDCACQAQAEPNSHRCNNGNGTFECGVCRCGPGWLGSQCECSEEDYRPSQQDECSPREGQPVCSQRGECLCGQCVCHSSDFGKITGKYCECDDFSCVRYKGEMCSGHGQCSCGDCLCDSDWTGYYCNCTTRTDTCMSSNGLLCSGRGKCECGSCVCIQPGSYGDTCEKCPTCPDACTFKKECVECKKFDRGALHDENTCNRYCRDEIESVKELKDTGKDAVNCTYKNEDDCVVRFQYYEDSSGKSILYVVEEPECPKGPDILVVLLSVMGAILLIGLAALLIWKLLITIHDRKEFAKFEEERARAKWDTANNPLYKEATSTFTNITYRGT

| Substance | Bmax ([1]; Activating antibody AP5) [units] | Bmax ([1]; No Treatment) [units] | affinity/avidity of αvβ3 for ligand, fold lower than that for aPB ([1]; unstimulated αvβ3-CHO cells) | coating concentration at half-maximal adhesion (αvβ3-CHO cells; no additive, 90 min at 37° C.) | coating amount at half-maximal adhesion (αvβ3-CHO cells; αvβ3 activated by AP5) | binding to platelets [2] | aPB binding on a per receptor basis (mfi of aPB binding divided by mfi of SSA6 binding) ([1]; AP5-treated αvβ3-CHO cells, 75 nM aPB) |
| --- | --- | --- | --- | --- | --- | --- | --- |
| Fibrinogen: Purified human fibrinogen labeled with FITC | 77 ± 6 | 126 ± 74 | approximately 15 fold |  |  |  |  |
| Penton Base: Recombinant multivalent penton base coat protein from adenovirus type 2, baculovirus-expressed | 69 ± 5 | 80 ± 4 |  | 30-40 ng/well | approximately 5 ng of penton base/well |  |  |
| aPB: Penton base conjugated to Alexa-488 |  |  |  |  |  | neither aPB nor WOW-1 Fab bound detectably | 0.034±0.002 |
